These results are taken from article PMC10397247.

The target of one test is T1, 4H3666-AA.
T1 chain: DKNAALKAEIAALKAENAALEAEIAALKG
The test is described as follows: two-hybrid library CCmax.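 Also: natural log of median RNA to DNA barcode read ratio; higher means stronger binding.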 The conditions noted are these: mean of both orientations.

Another test has as its target T2, 4H3029-AA.
T2 chain: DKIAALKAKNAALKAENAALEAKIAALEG
The test is described as follows: two-hybrid library CCmax.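 Also: natural log of median RNA to DNA barcode read ratio; higher means stronger binding.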 The conditions noted are these: mean of both orientations.

A further test concerns the target T3, 4H3066-AA.
T3 chain: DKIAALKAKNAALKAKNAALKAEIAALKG
The test is described as follows: two-hybrid library CCmax.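 Also: natural log of median RNA to DNA barcode read ratio; higher means stronger binding.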 The conditions noted are these: mean of both orientations.

A further test deals with T4, 4H3709-AA.
T4 chain: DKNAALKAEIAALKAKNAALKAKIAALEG
The test is described as follows: two-hybrid library CCmax.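 Also: natural log of median RNA to DNA barcode read ratio; higher means stronger binding.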 As to conditions: mean of both orientations.

In the next test the target is T5, 4H3939-AA.
T5 chain: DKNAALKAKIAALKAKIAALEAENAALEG
The experiment in a line: two-hybrid library CCmax.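 Also: natural log of median RNA to DNA barcode read ratio; higher means stronger binding.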 The conditions noted are these: mean of both orientations.

The next test deals with T6, 4H478-AA.
T6 chain: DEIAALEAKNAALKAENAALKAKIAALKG
The experiment in a line: two-hybrid library CCmax.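 Also: natural log of median RNA to DNA barcode read ratio; higher means stronger binding.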 The conditions noted are these: mean of both orientations.

The next test concerns the target T7, 4H971-AA.
T7 chain: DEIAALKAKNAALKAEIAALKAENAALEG
The experiment in a line: two-hybrid library CCmax. The conditions noted are these: mean of both orientations.

A further test deals with T8, 4H3102-AA.
T8 chain: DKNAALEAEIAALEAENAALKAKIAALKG
The test is described as follows: two-hybrid library CCmax. The conditions noted are these: mean of both orientations.

In the next test the target is T9, 4H391-AA.
T9 chain: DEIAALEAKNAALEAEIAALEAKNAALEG
The experiment in a line: two-hybrid library CCmax. As to conditions: mean of both orientations.

A further test deals with T10, 4H3628-AA.
T10 chain: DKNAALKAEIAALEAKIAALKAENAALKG
The test is described as follows: two-hybrid library CCmax. As to conditions: mean of both orientations.

The target of the next test is T11, 4H3121-AA.
T11 chain: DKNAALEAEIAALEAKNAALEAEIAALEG
The experiment in a line: two-hybrid library CCmax. As to conditions: mean of both orientations.

The target of another test is T12, 4H428-AA.
T12 chain: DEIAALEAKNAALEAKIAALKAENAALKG
The experiment in a line: two-hybrid library CCmax. The conditions noted are these: mean of both orientations.

Another test addresses T13, 4H497-AA.
T13 chain: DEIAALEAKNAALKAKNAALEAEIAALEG
The test is described as follows: two-hybrid library CCmax. The conditions noted are these: mean of both orientations.

Another test concerns the target T14, 4H3417-AA.
T14 chain: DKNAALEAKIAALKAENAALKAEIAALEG
The test is described as follows: two-hybrid library CCmax. The conditions noted are these: mean of both orientations.

The target in the next test is T15, 4H3591-AA.
T15 chain: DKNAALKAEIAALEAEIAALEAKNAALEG
The experiment in a line: two-hybrid library CCmax. As to conditions: mean of both orientations.

A further test addresses T16, 4H3920-AA.
T16 chain: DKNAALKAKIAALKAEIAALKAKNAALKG
The experiment in a line: two-hybrid library CCmax. As to conditions: mean of both orientations.

Another test concerns the target T17, 4H675-AA.
T17 chain: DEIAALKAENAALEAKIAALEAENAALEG
The test is described as follows: two-hybrid library CCmax. As to conditions: mean of both orientations.

Another test has as its target T18, 4H656-AA.
T18 chain: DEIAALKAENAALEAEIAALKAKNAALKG
The test is described as follows: two-hybrid library CCmax. The conditions noted are these: mean of both orientations.

The target in another test is T19, 4H3446-AA.
T19 chain: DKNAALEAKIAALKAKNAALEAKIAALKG
The test is described as follows: two-hybrid library CCmax. As to conditions: mean of both orientations.

In a further test the target is T20, 4H918-bA.
T20 chain: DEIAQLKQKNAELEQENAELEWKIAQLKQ
The experiment in a line: two-hybrid library CCNG1.

In a further test the target is T21, O8-bA.
T21 chain: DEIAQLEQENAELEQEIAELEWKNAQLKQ
The experiment in a line: two-hybrid library CCNG1.

Another test has as its target T22, 4H968-bA.
T22 chain: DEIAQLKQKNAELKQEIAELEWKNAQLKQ
The test is described as follows: two-hybrid library CCNG1.

A further test deals with T23, 4H855-bA.
T23 chain: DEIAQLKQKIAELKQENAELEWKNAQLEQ
The test is described as follows: two-hybrid library CCNG1.

A further test addresses T24, 4H780-bA.
T24 chain: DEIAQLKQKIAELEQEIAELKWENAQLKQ
The test is described as follows: two-hybrid library CCNG1.

The target of another test is T25, 4H683-bA.
T25 chain: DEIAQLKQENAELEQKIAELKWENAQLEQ
The experiment in a line: two-hybrid library CCNG1.

The target in a further test is T26, 4H797-bA.
T26 chain: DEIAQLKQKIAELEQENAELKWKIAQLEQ
The experiment in a line: two-hybrid library CCNG1.

In another test the target is T27, 4H754-bA.
T27 chain: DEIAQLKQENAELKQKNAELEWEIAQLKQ
The test is described as follows: two-hybrid library CCNG1.

The target of the next test is T28, 4H953-bA.
T28 chain: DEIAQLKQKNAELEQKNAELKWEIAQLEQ
The experiment in a line: two-hybrid library CCNG1.

In a further test the target is T29, 4H906-bA.
T29 chain: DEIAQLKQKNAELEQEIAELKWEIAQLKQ
The test is described as follows: two-hybrid library CCNG1.

Another test concerns the target T30, 4H619-bA.
T30 chain: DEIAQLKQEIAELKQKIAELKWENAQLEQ
The experiment in a line: two-hybrid library CCNG1.

In another test the target is T31, 4H850-bA.
T31 chain: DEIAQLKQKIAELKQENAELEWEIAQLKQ
The experiment in a line: two-hybrid library CCNG1.

The next test deals with T32, 4H797-bH.
T32 chain: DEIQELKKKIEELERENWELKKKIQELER
The experiment in a line: two-hybrid library CCNG1.

In another test the target is T33, 4H454-bH.
T33 chain: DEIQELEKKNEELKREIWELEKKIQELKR
The test is described as follows: two-hybrid library CCNG1.

In a further test the target is T34, 4H607-bH.
T34 chain: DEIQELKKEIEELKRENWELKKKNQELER
The test is described as follows: two-hybrid library CCNG1.

In a further test the target is T35, 4H953-bH.
T35 chain: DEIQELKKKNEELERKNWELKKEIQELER
The test is described as follows: two-hybrid library CCNG1.

Another test has as its target T36, 4H687-bH.
T36 chain: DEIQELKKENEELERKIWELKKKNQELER
The experiment in a line: two-hybrid library CCNG1.

Another test has as its target T37, 4H3855-bH.
T37 chain: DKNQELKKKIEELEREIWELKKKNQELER
The experiment in a line: two-hybrid library CCNG1.

In another test the target is T38, 4H568-bH.
T38 chain: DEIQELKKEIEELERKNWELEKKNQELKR
The test is described as follows: two-hybrid library CCNG1.

Another test deals with T39, 4H717-bH.
T39 chain: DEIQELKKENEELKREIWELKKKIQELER
The experiment in a line: two-hybrid library CCNG1.

A further test concerns the target T40, 4H883-bH.
T40 chain: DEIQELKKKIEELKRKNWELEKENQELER
The experiment in a line: two-hybrid library CCNG1.

The target of the next test is T41, 4H72-bH.
T41 chain: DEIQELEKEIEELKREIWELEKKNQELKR
The test is described as follows: two-hybrid library CCNG1.

Another test deals with T42, 4H4001-bH.
T42 chain: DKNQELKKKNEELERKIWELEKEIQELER
The test is described as follows: two-hybrid library CCNG1.

The target in a further test is T43, 4H967-bH.
T43 chain: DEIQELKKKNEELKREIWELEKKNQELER
The experiment in a line: two-hybrid library CCNG1.

For a further test, the target named is T44, 4H918-bH.
T44 chain: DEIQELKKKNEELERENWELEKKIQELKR
The experiment in a line: two-hybrid library CCNG1.

The next test deals with T45, 4H908-bH.
T45 chain: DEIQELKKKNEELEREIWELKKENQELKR
The test is described as follows: two-hybrid library CCNG1.

B1: 4H2991-AA (peptide)
chain: DKIAALKAKNAALEAKIAALKAKNAALEG
Consider B1, for which the interaction score with 4H3666-AA is -1.01; with 4H3029-AA, -1.76; with 4H3066-AA, -1.81; with 4H3709-AA it was -1.43; in the test with 4H3939-AA, -1.71; with 4H478-AA it was -1.87. In addition, the interaction score in the test with 4H971-AA is -0.98; with 4H3102-AA, -0.548; in the test with 4H391-AA, 1.52; in the test with 4H3628-AA it was -1.99; with 4H3121-AA it was 1.28; with 4H428-AA, -0.913. Besides, the interaction score was -1.91 in the test with 4H497-AA; -1.68 with 4H3417-AA; -1.47 with 4H3591-AA; -1.73 in the test with 4H3920-AA; -0.186 with 4H675-AA; -0.731 in the test with 4H656-AA. In addition, in the test with 4H3446-AA, the interaction score is -1.73.

B2: 4H683-bA (peptide)
chain: DEIAQLKQENAELEQKIAELKWENAQLEQ
With B2, the interaction score with 4H918-bA was -0.784; with O8-bA it was -2.64; in the test with 4H968-bA, 2.25; with 4H855-bA it was -0.474; with 4H780-bA, -1.43; with 4H683-bA it was -0.189. The values for the interaction score in the test with 4H797-bA, with 4H754-bA and in the test with 4H953-bA were -1.06, -0.665 and -1.67, respectively.

B3: 4H619-bA (peptide)
chain: DEIAQLKQEIAELKQKIAELKWENAQLEQ
For B3, the interaction score in the test with 4H906-bA was -1.09; with 4H619-bA, -0.211; in the test with 4H850-bA, -0.446.

B4: 4H3855-bH (peptide)
chain: DKNQELKKKIEELEREIWELKKKNQELER
Turning to B4, the interaction score is -0.875 in the test with 4H797-bH; 0.744 with 4H454-bH; -2.06 with O8-bA; -1.71 with 4H607-bH; -0.861 with 4H953-bH; -0.688 in the test with 4H687-bH. For the same molecule, the interaction score is -1.88 with 4H3855-bH; -2.56 with 4H568-bH; -0.607 with 4H717-bH; 0.413 with 4H883-bH; -1.07 with 4H72-bH; 1.02 in the test with 4H4001-bH. In addition, the interaction score with 4H967-bH was -0.847; in the test with 4H918-bH, -0.471; with 4H908-bH, -1.26.
